System: MS2 coat protein
Assay: apparent KD of MS2 coat protein; designed switch direction (-1 OFF switch, 1 ON switch): -1; higher = weaker reporter binding
Procedure, shortened: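 On Illumina chips, designed RNA switches with common flanks were made by stalled E. coli RNA polymerase. Titrations with SNAP-549-labelled MS2 coat protein, doubling from 0.7 or 1.5 nM to 3 µM, were done with no input, with 200 uM small-molecule ligand, or with an oligonucleotide input. Apparent KD is the median per design over clusters, from curve fits of normalised cluster fluorescence.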

[1] = Eterna round: R95, input ligand: microRNA oligo, concentration not stated
[2] = input ligand: microRNA oligo, concentration not stated

Sequence	apparent KD of MS2 coat protein (input ligand: FMN 200 uM)	apparent KD of MS2 coat protein (input ligand: none)	apparent KD of MS2 coat protein [1]	also measured
CCUAUGUUAGGAUAUCUAGUAAGAGGCCCAUAGGGCCGUGCAGAGAAGGGACAUGAGGAUCACCCAUGUGUCAC [Eternabot (L1) Solution 86] (Eterna round: R97, puzzle: Exclusion 4)	26.7 nM	34.6 nM		
CCAUCACAUGAGGAUCACCCAUGUCAGGAUAUCUCAGUGCAUCCACACGGACGCAUCAAGAGAAGGGACAAAAC [Vinxlusion 4 - Jieux - Exclusion 1] (Eterna round: R97, puzzle: Exclusion 1)	35.9 nM	34.8 nM		
GAUUGACAUGAGGAUCACCCAUGUGAGGAUAUCGGCCGGACCGUGCCGGCUUCCGUCGCGAGAAGGCGCAUAGG [Exclusion 1 V40] (puzzle: Exclusion 1)			32 nM	apparent KD of MS2 coat protein (Eterna round: R95, input ligand: FMN 200 uM): 49.5 nM; apparent KD of MS2 coat protein (Eterna round: R95, input ligand: none): 37.3 nM
AGGUAACAUGAGGAUCACCCAUGUCAGGAUAUCAGUAAGAUGAGUAUAGAAUAGAGUAUGAGAAGGGACUAUAU [Excluse me! 24 - Jieux - Exclusion 1] (puzzle: Exclusion 1)			30.4 nM	
CAGCCCUGAGGAUAUCCAUCCUUGUACAUGAGGAUCACCCAUGUCUCCCUCUGGGCUUUCGGAGAAGGCAGGUAUC [Megrez-6.2] (Eterna round: R97, puzzle: Exclusion 5)	43.2 nM	44.5 nM		
AAGAGGAUCGGAGGAUAUGGAGCUGAAACGGCGCUAGAAGGCCGUCCAGUGUAACAUGAGGAUCACCCAUGUAGGGACCUCUAA [EX ng 1 4.1] (Eterna round: R96, puzzle: Exclusion NG 1)	314 nM	102 nM		apparent KD of MS2 coat protein [2]: 65.5 nM
CUGCUCCGUGUAGGAUAUCGCCGCACCACCCGGCGAGAAGGACAUGAGGAUCACCCAUGUAUGUUAUUAUCACGUGUGGCGCGC [Design 40] (Eterna round: R96, puzzle: Exclusion NG 1)	17.6 nM	15 nM		apparent KD of MS2 coat protein [2]: 11.7 nM
AACCUGAGGCAAAGCUUUAGGUGUACAUGAGGAUCACCCAUGUAGGAUAUGGUAAGCAAAGCUUACCAGAAGGACAUAAUGAUG [Mat - Exclusion NG 3 - Mod of JL - D48] (Eterna round: R96, puzzle: Exclusion NG 3)	134 nM	90.2 nM		apparent KD of MS2 coat protein [2]: 70.1 nM
CCGGAAAUAGAGGAUAUAGGAGUCGAUAGACUCCUAGAAGGCUAUACAUGAGGAUCACCCAUGUGUCCUACCGG [Fiskers Ex 6 - 65] (puzzle: Exclusion 6)			16.6 nM	
UUUAAUGGAAUUAAGAUCACAUGAGGAUCACCCAUGUAUAUAUAGGAUAUCAGCUCGUUUAGAGCUGAGAAGGAUAUAUACAUA [ExNG3/6-B2] (Eterna round: R96, puzzle: Exclusion NG 3)	90.1 nM	356 nM		apparent KD of MS2 coat protein [2]: 119 nM
GGCAUGUAAGGAUAUGCCACUGAGUGCUUUGCGCUCAGUAAGCAGAAGGUACAUGAGGAUCACCCAUGUGAUAA [jl-ex4-4.54 ViennaUCT mod] (Eterna round: R97, puzzle: Exclusion 4)	136 nM	653 nM		
CUCUGUGCAAAGGAUAUGUGAACAGGUCUAAUAACAGAAGGUUGCACUUGAGGAUCACCCAAGUUAAAGGGACC [Ortebi] (Eterna round: R97, puzzle: Exclusion 6)	517 nM	462 nM		
AAACCCUGAGGAUAUGCAUAACAACAAAGCCUCACGUGCCAACAUGAGGAUCACCCAUGUAGAAGGCAGGCCAA [Mod R3 Insanara 15 - Jieux - Exclusion 2] (Eterna round: R97, puzzle: Exclusion 2)	20.7 nM	15.3 nM		
UAUAUAUAGUAAGGAUAUGUAAUUUUUUUAUAAACAGAAGGUACUGACAUGAGGAUCACCCAUGUUUUAGUGUGGGCAUGUAGA [JMF's solution 32] (Eterna round: R96, puzzle: Exclusion NG 1)				apparent KD of MS2 coat protein [2]: 78.3 nM
GUCACUAGAGGAUAUACAAUGGUAUAUGAUCCUAGAGACAAACAUGAGGAUCACCCAUGUAGAAGGCUAGUAUU [Exclusion 2 - 4] (puzzle: Exclusion 2)			93.4 nM	
UUUUAACAUGAGGAUCACCCAUGUGAGGAUAUCGAAAUUUAUAUUAAUAUUUAUAAAACGAGAAGGCACAUUUU [JMF 51] (puzzle: Exclusion 1)			78.6 nM	
UUAAUGUGAGGAUAUCAGGUGUGCUAGAGAACUGGUACAUCUGAGAAGGCACAUGAGGAUCACCCAUGUUCUUC [Mat - Exclusion 4 - Mod of JL - D55] (puzzle: Exclusion 4)			36.8 nM	
AGCCACAGAGGAUAUACAUACAUCCAGUAGUAAAGAAUACUACAUGAGGAUCACCCAUGUAGAAGGCUGUGGCA [Omei Ex2 BD B13] (Eterna round: R97, puzzle: Exclusion 2)	308 nM	86.4 nM		
